Results reported in patent publication US20180148718.
pKd: −log10 of the molar value.

Target: Hsp90alpha (UniProt P07900)
Test: FP filter
Conditions: 5-10-5 gapmer, cEt wings 1-5 and 16-20, 2'-deoxy gap, all C 5mC, full PS; nitrocellulose double-filter binding, printed as binding constant

For “CTGCTAGCCTCTGGATTTGA [Isis 586183 (PS/cEt)]”, the pKd was 7.71.
